Source: paper PMC8264304

Test system: MexR (CSP18) (Pseudomonas aeruginosa clinical isolate CSP18)
Experiment: MST
Conditions: MST: 10 mM Tris, 1 mM DTT, room temperature

mexR-mexA intergenic region was tested. Which Kd did it give?
Its Kd is 1100 nM.
